Measurements from paper PMC3667669 (2014).
Blank lines part the entries; values can stand above or below the binder they belong to. Where no end group is shown, it is not given here.

Target: Cdc42 (Homo sapiens, UniProt P60953)
Experiment: fluorescence intensity titration

Sequence of Cdc42 (P60953 1-188): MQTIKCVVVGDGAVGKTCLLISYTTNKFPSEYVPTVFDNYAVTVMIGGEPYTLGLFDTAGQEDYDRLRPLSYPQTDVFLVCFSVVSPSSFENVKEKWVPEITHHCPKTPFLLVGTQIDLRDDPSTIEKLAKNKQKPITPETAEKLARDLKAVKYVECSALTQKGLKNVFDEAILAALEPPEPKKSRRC

Kd: 186 nM
B1: WASP CBD (Cdc42 binding domain) (protein)
chain: KKKISKADIGAPSGFKHVSHVGWDPQNGFDVNNLDPDLRSLFSRAGISEAQLTDAETSK
modifications: also: MBP fusion, mero87 dye label, site not given here

Kd: 144 nM
B2: WASP CBD (Cdc42 binding domain) (protein)
chain: B1 chain
modifications: also: MBP fusion, mero61 dye label, site not given here
